Experimental data: the supplement of paper PMC12764529
± gives the half width of the 95% confidence interval.

Experiments:
[1] = folding stability dG unfold from trypsin proteolysis; higher = more stable
Summary of the method: (§1)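 How resistant each design was to proteolysis was captured as K50, inferred by Bayesian fitting of sequencing counts. Unfolding free energy was then derived relative to a sequence-predicted unfolded-state K50 and a shared folded-state K50, per protease or combined. Digestion used trypsin and chymotrypsin at 11 threefold-diluted concentrations plus a no-protease condition, on mini-proteins under 80 residues without cysteine in a PA-tagged cDNA display construct. Designs were kept only when AlphaFold2 dimer inter-PAE was above 15.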

[2] = folding stability dG unfold from chymotrypsin proteolysis; higher = more stable
Summary of the method: as §1

[3] = folding stability dG unfold (combined trypsin and chymotrypsin); higher = more stable
Summary of the method: as §1

Sequence | folding stability dG unfold [1] [kcal/mol] | folding stability dG unfold [2] [kcal/mol] | folding stability dG unfold [3] [kcal/mol]
SWYHIQFWLEGNSIEELMKWAKELAKQGNFEITKISNEHMHITIEIKLKPPPPPPPPPPKEEYDGDGKPKSA [r9_830_TrROS] | 2.53 ± 0.56 | 2.37 ± 0.19 | 2.22 ± 0.46
SAGGSAGGMRYVTVTVTVPSNGKKYTYTKEIAPDEVFNISEAELAAEFGYPDVVVTVSESPIEDSAGGSAGG [r6_722_JUSTAS] | 2.19 ± 0.074 | 3.39 ± 0.022 | 3.08 ± 0.076
SAGGMTEEEAKELAKELAEKYAEEKGIEEIELKIESVEKEGDKFTVKVKLTFPNEEKTITITIPKDLISAGG [r13_611_JUSTAS] | 3.34 ± 0.21 | 3.21 ± 0.19 | 3.24 ± 0.11
SAGGVVTVTVDPNSDKVTAYTTRTVTVYFNELGIWKEEEVTDVVTMSQEELEKLKEESGLPMVIVGASAGGS [r8_337_JUSTAS] | 0.216 ± 0.061 | -0.0773 ± 0.19 | 0.238 ± 0.094
SAGGKEVKVIRITMSRDQLRDLIEKLFGKPLSLEEILKKLPPGAKVEIRVEENENGEVTVEIVIVKKPSAGG [r13_869_TrROS_Hall] | 3.2 ± 0.23 | 4.14 ± 0.11 | 3.99 ± 0.26
SAGMTPDTTLPDLVVTIYSPDGTSTTYTFPNVTRVTEVDPETGKLTLYSPEGRTITLTLSPDEKVEIVGSAG [r5_762_JUSTAS] | 2.45 ± 0.035 | 3.024 ± 0.027 | 2.84 ± 0.037
SAGGEKVVLEIVLPPELENLTPEELEALKNITLPNGFKITDIELVEENGRLVIRITVDSPEAAEALLKSAGG [r13_269_TrROS_Hall] | 2.04 ± 0.086 | 2.23 ± 0.056 | 2.19 ± 0.22
SAGGSAGGSAMTFTVNSEEEVEKLKKLGGVTKTSEEPGKVTLSAPNLPPELQEKIKEVIQKSAGGSAGGSAG [r3_398_JUSTAS] | -0.548 ± 0.2 | 0.434 ± 0.27 | -0.111 ± 0.26
SAGGFKIERDPEDGQVTITFPMPGFGMPFRISIPYDPNGDIDVDIEPSPGMPPHHRDMIENLARELADSAGG [r13_139_TrROS] | 0.656 ± 0.16 | 0.281 ± 0.43 | 0.562 ± 0.13
SAGGSAGGSAGGDENDYYMVEIPIWRRNENGGWEPIFPIPIMVPKGAPKDVAKDILNNLSAGGSAGGSAGGS [r10_470_TrROS] | 0.361 ± 0.1 | 0.324 ± 0.12 | 0.382 ± 0.085
SAGGSAGGSAGGKVHPDQPVKLRLTFTVSGVYYDENKPRVETKPVTVEFTALAPDEDALSAGGSAGGSAGGS [r10_745_TrMRF] | 0.0543 ± 0.12 | 0.208 ± 0.17 | 0.185 ± 0.07
SAGGSAGGSMSLKGVKITEVTNPGGKVTITYTGDGVPQTITIPPAERALIEKLRESGDISFSPSAGGSAGGS [r12_604_JUSTAS] | 0.708 ± 0.043 | 0.579 ± 0.17 | 0.743 ± 0.1
SAGGDVKEFDSPEDLNKALPALKNGKEVHIRVEMRMPQPDPDGEPRQYPMEFWYTIKLKNGELEIEPISAGG [r13_835_TrROS] | 0.593 ± 0.071 | 0.988 ± 0.091 | 0.827 ± 0.07
SAGEREELLERAKELARKLAEELGVEVEVTVTVEERDDSVTITVTVTVRNEDGSTHTFTFTFTLKKEDLSAG [r5_609_TrROS_Hall] | 3.83 ± 0.14 | 5.55 ± 0.2 | 5.43 ± 0.13
SAGGSAGGSAGDLLKEAVEEAKDSGHPNVPIRFNFPGGTIRITVKVDPKNGKVEIKVEPVSAGGSAGGSAGG [r17_475_TrROS] | 0.674 ± 0.12 | 0.445 ± 0.1 | 0.645 ± 0.29
SAGGSAGGSAKVILLPSPDDSVVLITVHPDDTVEVTVLRLNPEDPTYEPVTVTVPLSYPELFSAGGSAGGSA [r18_503_TrMRF] | 0.903 ± 0.044 | 0.791 ± 0.19 | 0.843 ± 0.18

Sequence | folding stability dG unfold [1] [kcal/mol] | folding stability dG unfold [2] [kcal/mol] | folding stability dG unfold [3] [kcal/mol]
SAGGSAGGSKKPIDIKIEDVDHRRNPNGQPYMKIRIEIPGKPLLSYTFPPGASVEDFLKNILSSAGGSAGGS [r20_115_TrROS] | 1.1 ± 0.033 | 0.96 ± 0.1 | 1.09 ± 0.057
SGMTSSFEVSPVGDILVVTVSLHFPGLGLSSTASATQDPSSDSMSLDLTIPFPPEDLAPLSLSLSLKPPESA [r9_887_JUSTAS] | 2.61 ± 0.12 | 3.62 ± 0.27 | 2.87 ± 0.23
SAGGSAGGSAGGGFYVKEIKGVKFGDKTLYIIRVYDDKGNEVFDVVAPPEVLKNLPPEVLSAGGSAGGSAGG [r7_263_TrMRF] | 1.04 ± 0.015 | 1.79 ± 0.037 | 1.52 ± 0.045
SAGGEKKVLIVKVEIKLINNGGEFEAEFVFPEDVTLEEILAKVKELLPPGAKAEIKIKEIKLVSEDGSAGGS [r16_393_TrMRF] | 3.93 ± 0.18 | 2.76 ± 0.15 | 3.58 ± 0.39
SAGGELPLSDITVESESPVTGGSWTVTLEVPSLGLRITVPAAELGAVAASTPGVATSLSPVSPAEPASAGGS [r16_61_JUSTAS] | -0.251 ± 0.11 | 0.454 ± 0.093 | 0.225 ± 0.091
SAKDIEIEMERTNGYYQMTIKLPGKGYEISVWMPGDQYEISVQPPKNPDEVETIPFTVPEIKDALIDALSAG [r14_716_TrROS] | 0.519 ± 0.12 | 1.26 ± 0.16 | 1.18 ± 0.3
SAETVVNVTISRPPPSKYSVTITIQPPTSSTSLPTTTDLPPGAYEELLAALQKAHPNLTFSTVTETSDGSAG [r14_969_JUSTAS] | 0.614 ± 0.03 | 0.758 ± 0.15 | 0.828 ± 0.12
SAGGSAGGSAPPPAKVKVITITETRVTYDPDTDELTVETVTLTLVVAPDGHIYVDGRWIPAEDLSAGGSAGG [r6_514_TrROS_Hall] | 2.89 ± 0.064 | 3.68 ± 0.14 | 3.37 ± 0.11
SAGGSKAKIVEAEIVEFDPEKGKITIRIKANGKTFEIEFPPGVKKIKLKVKLENGEEKEIEITIKPSAGGSA [r2_132_TrROS_Hall] | 1.85 ± 0.044 | 3.01 ± 0.14 | 2.59 ± 0.16
SAGGSAITLEDLKNAEIVKPEVMPFPDNGMWMPTWKLRDPGNGKEFVFTFMYNPGNGEPQWSLVPVSAGGSA [r15_170_TrROS] | 1.16 ± 0.053 | 1.36 ± 0.1 | 1.2 ± 0.15
SAGGSAGGSSAEEVAASYPVTEVEYDPVTNTTTVTAEFPDSRIVLTYDPATGTVTTEVLPPLRSAGGSAGGS [r12_214_JUSTAS] | 0.508 ± 0.018 | 0.749 ± 0.035 | 0.654 ± 0.17
SAGGSAGGSKLVLRIVVRNKETGEWQTLELEIEVEESEEEALAKAKELLASLPEEDVKIEILPSAGGSAGGS [r12_871_TrROS_Hall] | 3.18 ± 0.14 | 3.79 ± 0.065 | 3.56 ± 0.071
SAGGAKELFEAIPGAEAEYDPETGTLRVRFEFPDYTVLVEIPTDKETGEVLGVRVYVIDKDGVPHEIDLSAG [r5_367_TrMRF] | 3.26 ± 0.24 | 4.81 ± 0.15 | 4.52 ± 0.23
SAGGSAGGSATLTIDELRELLEKLGIDVEELSEEEIAELLKKLYPNARVERNENGELTIHPSAGGSAGGSAG [r3_375_TrROS_Hall] | 3.34 ± 0.096 | 2.77 ± 0.12 | 2.99 ± 0.14
SAGGSAGGSAGGVKKGDKVTVLRVRLELKIKVEKTEDGSLKLTAELKLEISLVTVTAPDSAGGSAGGSAGGS [r10_297_TrROS_Hall] | 3.53 ± 0.14 | 5.2 ± 0.15 | 5.06 ± 0.21
